Paper PMC6941359, “An improved bind-n-seq strategy to determine protein-DNA interactions validated using the bacterial transcriptional regulator YipR”

What was measured:
His6-MBP tag alone = His6-MBP tag alone (UniProt P0AEX9 27-392); assay: EMSA; tag-only control; EMSA buffer not given in the material; Bind-n-seq: 20 mM Tris-HCl pH 8, 1 mM TCEP, 2% glycerol, 1 mM EDTA (binding buffer A) plus MgCl2, BSA and 0-500 mM KCl, room temperature 2 h; conditions: protein: recombinant; tags: His6-MBP; label: DIG; blunt
YipR (His6-MBP fusion) = YipR (His6-MBP fusion) (Xanthomonas campestris pv. campestris …, UniProt A0A0H2XAU1 1-344); assay: EMSA; EMSA buffer not given in the material; Bind-n-seq: 20 mM Tris-HCl pH 8, 1 mM TCEP, 2% glycerol, 1 mM EDTA (binding buffer A) plus MgCl2, BSA and 0-500 mM KCl, room temperature 2 h; conditions: protein: recombinant; tags: His6-MBP; label: DIG; blunt
Chain of YipR (His6-MBP fusion) (A0A0H2XAU1 whole entry, the tested form may be a part): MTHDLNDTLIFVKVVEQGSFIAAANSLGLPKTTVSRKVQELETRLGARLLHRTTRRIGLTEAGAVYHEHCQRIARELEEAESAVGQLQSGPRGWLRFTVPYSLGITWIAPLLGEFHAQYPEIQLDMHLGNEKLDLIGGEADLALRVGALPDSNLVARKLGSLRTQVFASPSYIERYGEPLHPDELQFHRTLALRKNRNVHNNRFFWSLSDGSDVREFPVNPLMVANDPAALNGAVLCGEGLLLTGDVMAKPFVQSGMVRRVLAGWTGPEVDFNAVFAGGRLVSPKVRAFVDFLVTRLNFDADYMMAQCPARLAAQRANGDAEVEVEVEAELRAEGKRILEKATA

B1: XC_2633P (dsDNA)
DNA 1: CCGGCTTTATCCAGATCGCCGACCTGCACCCAGGACCCAGCGGCTTGCTGACGCCCTTCAAGGACACACGGATGTGGATAGCGGGGTTCAAGCCCGACGGGAACCGCGACAAGTAACCCGGCCTCCTACTTCCCAATCCCTCTC
DNA 2: GAGAGGGATTGGGAAGTAGGAGGCCGGGTTACTTGTCGCGGTTCCCGTCGGGCTTGAACCCCGCTATCCACATCCGTGTGTCCTTGAAGGGCGTCAGCAAGCCGCTGGGTCCTGGGTGCAGGTCGGCGATCTGGATAAAGCCGG
binding result (His6-MBP tag alone): no binding
binding result (YipR (His6-MBP fusion)): binds
